From the supplement of paper PMC11246515 come the findings set out here.

The data set is described as follows: total protein half-life in vivo (active degradation + dilution); higher = more stable protein.
The mark [1] stands for this setting: E. coli NCM3722 delta-clpP delta-lon delta-hslV, growth: N-lim chemostat, doubling time 6 h.
The mark [2] stands for this setting: E. coli NCM3722 delta-clpP, growth: N-lim chemostat, doubling time 6 h.
Setting [3] is: E. coli NCM3722 delta-hslV, growth: N-lim chemostat, doubling time 6 h.
Setting [4] is: E. coli NCM3722 delta-lon, growth: N-lim chemostat, doubling time 6 h.
Where [5] appears, read: E. coli NCM3722 delta-smpB, growth: N-lim chemostat, doubling time 6 h.
Where [6] appears, read: wild type E. coli NCM3722, growth: C-lim chemostat, doubling time 3 h.
Where [7] appears, read: wild type E. coli NCM3722, growth: C-lim chemostat, doubling time 6 h.
Setting [8] is: wild type E. coli NCM3722, growth: C-lim chemostat, doubling time 12 h.
Where [9] appears, read: wild type E. coli NCM3722, growth: N-lim chemostat, doubling time 6 h.
The mark [10] stands for this setting: wild type E. coli NCM3722, growth: N-lim chemostat, doubling time 12 h.
The mark [11] stands for this setting: wild type E. coli NCM3722, growth: P-lim chemostat, doubling time 6 h.
Setting [12] is: wild type E. coli NCM3722, growth: P-lim chemostat, doubling time 12 h.

± gives the standard deviation of the averaged measurements.

In the case of “MAEIGIFVGTMYGNSLLVAEEAEAILTAQGHKATVFEDPELSDWLPYQDKYVLVVTSTTGQGDLPDSIVPLFQGIKDSLGFQPNLRYGVIALGDSSYVNFCNGGKQFDALLQEQSAQRVGEMLLIDASENPEPETESNPWVEQWGTLLS”, the “total protein half-life in vivo” value reads like this: under setting [1], 6.12 ± 0.9 h; under setting [2], 6.03 ± 1.5 h; under setting [3], 5.34 ± 0.23 h; under setting [4], 6 ± 0.2 h; under setting [5], 5.34 ± 0.1 h; under setting [6], 3.57 ± 0.5 h. Also, the “total protein half-life in vivo” value runs as follows: under setting [7], 5.8 ± 0.3 h; under setting [8], 13.42 ± 0.023 h; under setting [9], 5.7 ± 0.42 h; under setting [10], 9.75 ± 0.96 h; under setting [11], 6.03 ± 0.35 h.

Turning to “MSQSLFSQPLNVINVGIAMFSDDLKKQHVEVTQLDWTPPGQGNMQVVQALDNIADSPLADKIAAANQQALERIIQSHPVLIGFDQAINVVPGMTAKTILHAGPPITWEKMCGAMKGAVTGALVFEGLAKDLDEAAELAASGEITFSPCHEHDCVGSMAGVTSASMFMHIVKNKTYGNIAYTNMSEQMAKILRMGANDQSVIDRLNWMRDVQGPILRDAMKIIGEIDLRLMLAQALHMGDECHNRNNAGTTLLIQALTPGIIQAGYSVEQQREVFEFVASSDYFSGPTWMAMCKAAMDAAHGIEYSTVVTTMARNGVEFGLRVSGLPGQWFTGPAQQVIGPMFAGYKPEDSGLDIGDSAITETYGIGGFAMATAPAIVALVGGTVEEAIDFSRQMREITLGENPNVTIPLLGFMGVPSAIDITRVGSSGILPVINTAIAHKDAGVGMIGAGIVHPPFACFEKAILGWCERYGV”, the “total protein half-life in vivo” value under setting [1] worked out at 5.39 ± 0.44 h; the “total protein half-life in vivo” value under setting [7] turned out to be 4.45 h; the “total protein half-life in vivo” value under setting [8] came out at 7.84 h; the “total protein half-life in vivo” value under setting [9] came out at 2.89 h; the “total protein half-life in vivo” value under setting [10] turned out to be 4.45 h; the “total protein half-life in vivo” value under setting [12] came out at 8.94 ± 0.66 h.

In the case of “MRKSVIAIIIIVLVVLYMSVFVVKEGERGITLRFGKVLRDDDNKPLVYEPGLHFKIPFIETVKMLDARIQTMDNQADRFVTKEKKDLIVDSYIKWRISDFSRYYLATGGGDISQAEVLLKRKFSDRLRSEIGRLDVKDIVTDSRGRLTLEVRDALNSGSAGTEDEVTTPAADNAIAEAAERVTAETKGKVPVINPNSMAALGIEVVDVRIKQINLPTEVSEAIYNRMRAEREAVARRHRSQGQEEAEKLRATADYEVTRTLAEAERQGRIMRGEGDAEAAKLFADAFSKDPDFYAFIRSLRAYENSFSGNQDVMVMSPDSDFFRYMKTPTSATR [P0ABC3]”, the “total protein half-life in vivo” value stood at 6.51 ± 1.1 h under setting [1]; 6.07 ± 0.18 h under setting [2]; 6.357 ± 0.024 h under setting [3]; 6.347 ± 0.034 h under setting [4]; 5.72 ± 0.33 h under setting [5]; 3.09 ± 0.1 h under setting [6]. Moreover, the “total protein half-life in vivo” value is 6.06 ± 0.14 h under setting [7]; 11.7 ± 0.84 h under setting [8]; 6.653 ± 0.049 h under setting [9]; 12.7 ± 0.77 h under setting [10]; 6 ± 0.65 h under setting [11]; 13.8 ± 0.97 h under setting [12].

Turning to “MDIPRIFTISESEHRIHNPFTEEKYATLGRVLRMKPGTRILDLGSGSGEMLCTWARDHGITGTGIDMSSLFTAQAKRRAEELGVSERVHFIHNDAAGYVANEKCDVAACVGATWIAGGFAGAEELLAQSLKPGGIMLIGEPYWRQLPATEEIAQACGVSSTSDFLTLPGLVGAFDDLGYDVVEMVLADQEGWDRYEAAKWLTMRRWLEANPDDDFAAEVRAELNIAPKRYVTYARECFGWGVFALIAR”, the “total protein half-life in vivo” value worked out at 5.64 ± 0.16 h under setting [1]; 5.71 ± 1.8 h under setting [3]; 3.54 ± 0.12 h under setting [5]; 2.7 ± 0.65 h under setting [6]; 4.93 ± 0.38 h under setting [7]; 9.89 ± 1.2 h under setting [8]. Further, the “total protein half-life in vivo” value was found to be 3.97 h under setting [9], 8.49 h under setting [10], 7.11 h under setting [11] and 12.41 ± 0.083 h under setting [12].

Take “MDINNKARIHWACRRGMRELDISIMPFFEHEYDSLSDDEKRIFIRLLECDDPDLFNWLMNHGKPADAELEMMVRLIQTRNRERGPVAI”: the “total protein half-life in vivo” value was 5.79 ± 0.24 h under setting [1]; 3 h under setting [6]; 6.71 h under setting [8]; 4.97 h under setting [11]; 11.3 ± 2.2 h under setting [12].

Consider “MTHVCSVILIRRSFDIYHEQQKISLHNESILLLEKNLADDFAFCSPDTRRLDIDELTVCHYLQNIRQLPRNLGLHSKDRLLINQSPPMPLVTAIFDSFNESGVNSPILSNMLYLSCLSMFSHKKELIPLLFNSISTVSGKVERLISFDIAKRWYLRDIAERMYTSESLIKKKLQDENTCFSKILLASRMSMARRLLELRQIPLHTIAEKCGYSSTSYFINTFRQYYGVTPHQFAQHSPGTFS”, for which the “total protein half-life in vivo” value runs as follows: under setting [1], 5.33 ± 0.16 h; under setting [2], 1.51 h; under setting [5], 0.628 h; under setting [9], 0.171 h.

Turning to “MSAQKPGLHPRNRHHSRYDLATLCQVNPELRQFLTLTPAGEQSVDFANPLAVKALNKALLAHFYAVANWDIPDGFLCPPVPGRADYIHHLADLLAEASGTIPANASILDIGVGANCIYPLIGVHEYGWRFTGSETSSQALSSAQAIISSNPGLNRAIRLRRQKESGAIFNGIIHKNEQYDATLCNPPFHDSAAAARAGSERKRRNLGLNKDDALNFGGQQQELWCEGGEVTFIKKMIEESKGFAKQVMWFTSLVSRGENLPPLYRALTDVGAVKVVKKEMAQGQKQSRFIAWTFMNDEQRRRFVNRQR”, the “total protein half-life in vivo” value by setting is: under setting [1], 5.5 ± 0.76 h; under setting [2], 4.08 ± 0.18 h; under setting [3], 5.27 ± 1.1 h; under setting [4], 5.31 ± 0.52 h; under setting [5], 4.11 ± 0.72 h; under setting [6], 2.98 ± 0.11 h. Further, the “total protein half-life in vivo” value under setting [7] was found to be 4.83 ± 0.83 h; the “total protein half-life in vivo” value under setting [8] worked out at 13.2 h; the “total protein half-life in vivo” value under setting [9] worked out at 4.81 ± 0.35 h; the “total protein half-life in vivo” value under setting [10] is 7.46 ± 0.98 h; the “total protein half-life in vivo” value under setting [11] was found to be 5.28 ± 0.23 h; the “total protein half-life in vivo” value under setting [12] was 10.5 ± 0.17 h.

With “MEKGTVKWFNNAKGFGFICPEGGGEDIFAHYSTIQMDGYRTLKAGQSVQFDVHQGPKGNHASVIVPVEVEAAVA [P0A968]”, the “total protein half-life in vivo” value runs as follows: under setting [1], 2.08 h; under setting [2], 1.11 ± 0.089 h; under setting [3], 0.144 h; under setting [6], 0.333 ± 0.022 h; under setting [7], 0.386 h; under setting [8], 0.224 h.

As to “MAAIAFIGLGQMGSPMASNLLQQGHQLRVFDVNAEAVRHLVDKGATPAANPAQAAKDAEFIITMLPNGDLVRNVLFGENGVCEGLSTDALVIDMSTIHPLQTDKLIADMQAKGFSMMDVPVGRTSANAITGTLLLLAGGTAEQVERATPILMAMGSELINAGGPGMGIRVKLINNYMSIALNALSAEAAVLCEALNLPFDVAVKVMSGTAAGKGHFTTSWPNKVLSGDLSPAFMIDLAHKDLGIALDVANQLHVPMPLGAASREVYSQARAAGRGRQDWSAILEQVRVSAGMTAKVKM [P0A9V8]”, the “total protein half-life in vivo” value reads like this: under setting [6], more than 4 h; under setting [7], 4.77 ± 1.8 h.
